Key:
[1] = biological target: SACSIN HEPN domain (recombinant, GST-tag removed) (human); test: SEC
[2] = biological target: SACSIN HEPN domain (recombinant, GST-tag removed) (human); test: native gel or EMSA

stoichiometry N [1]: 2
stoichiometry N [2]: 2
Substance: SACSIN HEPN domain (recombinant, GST-tag removed) (domain or fragment)

Reference: article doi:10.64898/2025.12.18.694329
